Experimental data reported in the supplement of paper PMC10126150.
± gives the standard deviation of the averaged measurements.

System: ATP
Experiment: switch fluorescence ratio, 500 uM ATP over buffer (Cy3 cluster intensity, sum of 5 cycles each) (fold (ratio)); higher = stronger signal-on switching upon ATP binding; sequences stand for … in TCGTCGGCAGCGTCAGATGTGTATAAGAGACAGTTTTTTTTTTTTTTTTTTTTTTTTT…TC
Conditions: aptamer strand: ATP DNA aptamer (quencher-CACCTGGGGGAGTATTGCGGAGGAAGG + anchor), 100 nM annealed; ATP concentration: 500 uM
Summary of the method: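 Switching-strand clusters labelled with Cy3 on a modified Illumina MiSeq flow-cell were annealed to 100 nM quencher-labelled ATP aptamer, imaged in selection buffer, and re-imaged after 15 min with 500 uM ATP at 22 °C. This was done over five cycles with NaOH stripping and re-annealing in between. The fluorescence ratio is summed target-cycle over summed buffer-cycle Cy3 intensity per cluster, averaged per switch-domain sequence, excluding clusters outside 100-1000 RFU.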
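Further: ATP exposure 15 min at 22 °C before imaging.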

| Sequence | switch fluorescence ratio |
| --- | --- |
| TGCAGTTTTT | 0.999 ± 0.029 |
| TGCATACGGC | 1.04 ± 0.07 |
| TGCATAGGGA | 1.01 ± 0.035 |
| TGCATGAAGC | 1.034 ± 0.0057 |
| TGCATGATCG | 1.02 ± 0.033 |
| TGCATGGAGC | 0.9946 ± 0.0042 |
| TGCATGGATC | 1.02 ± 0.012 |
| TGCATGGGAG | 1.001 ± 0.0039 |
| TGCATGTCGC | 0.991 ± 0.025 |
| TGCATTTTGC | 1.08 ± 0.023 |
| TGCCAAATAG | 1.02 ± 0.039 |
| TGCCAATGAA | 0.965 ± 0.02 |
| TGCCAATGGG | 1 ± 0.038 |
| TGCCAGAAGG | 1.021 ± 0.0041 |
| TGCCAGGATT | 1.25 ± 0.42 |
| TGCCAGTTCG | 1.02 ± 0.025 |
| TGCCCGCCCT | 1.08 ± 0.065 |
| TGCCCGCTGC | 1.27 ± 0.017 |
| TGCCCGGACA | 1.01 ± 0.027 |
| TGCCCGGTTT | 1.01 ± 0.0077 |
| TGCCCTTCAT | 1.04 ± 0.011 |
| TGCCGAGGTG | 1.38 ± 0.12 |
| TGCCGGGAAA | 1.01 ± 0.0084 |
| TGCCGGTGGT | 1.01 ± 0.035 |
| TGCCGTGGGT | 0.987 ± 0.04 |
| TGCCTAGTTT | 0.995 ± 0.064 |

| Sequence | switch fluorescence ratio |
| --- | --- |
| TGCCTTAAGT | 1.01 ± 0.063 |
| TGCGAGGCGT | 0.997 ± 0.021 |
| TGCGAGGGTG | 1.02 ± 0.065 |
| TGCGATACGG | 2.71 ± 0.12 |
| TGCGATGAGG | 1.01 ± 0.046 |
| TGCGCCGGGT | 1.12 ± 0.1 |
| TGCGCGAAAT | 0.995 ± 0.0021 |
| TGCGCGCTGG | 1 ± 0.041 |
| TGCGCTATGT | 1.07 ± 0.022 |
| TGCGCTTGTC | 0.974 ± 0.082 |
| TGCGGAAAAC | 1.72 ± 0.82 |
| TGCGGATATA | 1.04 ± 0.043 |
| TGCGGGCCAT | 1.027 ± 0.0067 |
| TGCGGGGAGG | 1.01 ± 0.0017 |
| TGCGGGGCTT | 0.997 ± 0.048 |
| TGCGGGGGAG | 0.996 ± 0.02 |
| TGCGGGTCGG | 1.03 ± 0.031 |
| TGCGGTAAGG | 1 ± 0.031 |
| TGCGGTAATT | 1.14 ± 0.16 |
| TGCGGTTGGG | 1.022 ± 0.003 |
| TGCGTGAGGG | 1.04 ± 0.016 |
| TGCGTGTGGT | 1.036 ± 0.0046 |
| TGCGTGTGTC | 1.05 ± 0.024 |
| TGCGTGTTGA | 1.04 ± 0.0081 |
| TGCGTTACAG | 1.01 ± 0.044 |
| TGCGTTAGCC | 1.035 ± 0.0025 |

| Sequence | switch fluorescence ratio |
| --- | --- |
| TGCGTTGGAG | 1.08 ± 0.057 |
| TGCGTTTATT | 0.994 ± 0.015 |
| TGCGTTTCGA | 1.03 ± 0.025 |
| TGCGTTTGTT | 0.996 ± 0.029 |
| TGCTAGATAA | 1 ± 0.039 |
| TGCTAGCATT | 1.11 ± 0.15 |
| TGCTAGCTAT | 1.02 ± 0.0029 |
| TGCTAGGGAA | 0.975 ± 0.015 |
| TGCTAGGGAT | 1.01 ± 0.029 |
| TGCTAGGGTA | 0.985 ± 0.012 |
| TGCTAGGGTT | 1 ± 0.032 |
| TGCTAGTTCT | 0.99 ± 0.016 |
| TGCTATGGGC | 1.01 ± 0.017 |
| TGCTATTGTG | 0.959 ± 0.02 |
| TGCTATTTAC | 1.1 ± 0.069 |
| TGCTCCTTAG | 1.07 ± 0.03 |
| TGCTCGTATA | 0.9852 ± 0.0062 |
| TGCTCGTGCT | 1.01 ± 0.028 |
| TGCTCTAAGG | 1.02 ± 0.046 |
| TGCTCTTTCA | 1 ± 0.025 |
| TGCTGAAGGA | 0.9743 ± 0.0064 |
| TGCTGCCGGT | 1.02 ± 0.096 |
| TGCTGCGACG | 1.003 ± 0.0022 |
| TGCTGCTACC | 1.07 ± 0.037 |
| TGCTGGAGCT | 1.06 ± 0.022 |
